Changes are numbered by the printed parent chain.
T1: Plasmodium falciparum histidine-rich protein II (HRP-II) (Plasmodium falciparum, UniProt P05227 22-332)
T1 construct: Coating antigen of all ELISAs; also called HRP-II protein; MA-HRPII Ag protein
T1 sequence (looked up): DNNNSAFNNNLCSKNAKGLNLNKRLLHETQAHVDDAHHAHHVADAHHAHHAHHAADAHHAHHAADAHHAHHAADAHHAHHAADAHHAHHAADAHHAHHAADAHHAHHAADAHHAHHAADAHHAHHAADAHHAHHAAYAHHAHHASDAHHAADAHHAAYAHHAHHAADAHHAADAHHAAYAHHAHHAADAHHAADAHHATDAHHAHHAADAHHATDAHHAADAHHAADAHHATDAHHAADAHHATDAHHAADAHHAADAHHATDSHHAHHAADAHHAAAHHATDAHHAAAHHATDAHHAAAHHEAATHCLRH

B1: Anti-HRP-II 3R5 monoclonal antibody (recombinant, expressed in CHO cells; WT) (antibody, mouse IgG2b, kappa, V domains shown)
VH: EVQLQQSGPEVVKPGASVKISCKASGSTLTEYYMNWVKQSHGKGLEWIGDLNPINGGTPYQQKFRDKATLTVDKSSNTAYMELRSLTSEDSALYYCTRGAEEYWGQGTTLTVSS
VL: DVVLTQTPLSLSVTIGQPASISCKSSQSIIYSNGKIYINWFQQRPGQSPKRLMYQLSKIDPGIPDRFSGSGSETDFTLKISRVEAEDLGVYYCLQGTYSPNTFGGGTKLEIKR
notes: Mouse IgG; also called Anti-HRP-H3R5; CHO transient-transfected cell supernatant
B2: WT 1-2 (antibody, mouse IgG2b, kappa, V domains shown)
VH: B1 VH with S27T, L51I, N55Q, Q61N
VL: B1 VL with I30L, N33Q, G96A, S99T
notes: WT as framework
B3: WT 1-3 (antibody, mouse IgG2b, kappa, V domains shown)
VH: B1 VH with L29I, R98K
VL: B1 VL with L56V, D60E, S99Y
notes: WT as framework
B4: WT 1-1 (antibody, mouse IgG2b, kappa, V domains shown)
VH: B1 VH with S27Y, L29I, L51V, R98K
VL: B1 VL with I29L, I30L, L56I, D60E, G96A
notes: WT as framework
B5: WT 1-4 (antibody, mouse IgG2b, kappa, V domains shown)
VH: B1 VH with S27T, L51V, Q61N, R98K
VL: B1 VL with I29L, N33Q, L56I, D60E, G96A, S99T
notes: WT as framework
B6: WT 1-5 (antibody, mouse IgG2b, kappa, V domains shown)
VH: B1 VH with S27Y, L29I, N55Q
VL: B1 VL with I29L, I30L, N33Q, G96A
notes: WT as framework
B7: Mutation 1 (antibody, mouse IgG2b, kappa, V domains shown)
VH: B1 VH with E31D, P59A, E102D
VL: B1 VL with I38L, I59L, N101Q
notes: also called Variant 1
B8: Mutation 2 (antibody, mouse IgG2b, kappa, V domains shown)
VH: B1 VH
VL: B1 VL with I38L
notes: WT as framework
B9: Mutation 3 (antibody, mouse IgG2b, kappa, V domains shown)
VH: B1 VH with E31Q, P59V, E102M
VL: B1 VL with I38G, I59F, N101M
notes: WT as framework
B10: Mutation 1-48 (antibody, mouse IgG2b, kappa, V domains shown)
VH: B1 VH with S27Y, L29I, E31D, N55Q, P59A, Q61N, E102D
VL: B1 VL with I29L, I30L, N33Q, I38L, L56I, I59L, S99Y, N101Q
notes: Mutation 1 as framework
B11: Mutation 1-45 (antibody, mouse IgG2b, kappa, V domains shown)
VH: B1 VH with S27Y, L29I, E31D, P59A, Q61N, R98K, E102D
VL: B1 VL with I30L, N33Q, I38L, I59L, D60E, S99Y, N101Q
notes: Mutation 1 as framework
B12: Mutation 1-35 (antibody, mouse IgG2b, kappa, V domains shown)
VH: B1 VH with S27Y, L29I, E31D, L51V, N55Q, P59A, E102D
VL: B1 VL with I29L, I30L, I38L, L56V, I59L, D60E, G96A, S99Y, N101Q
notes: Mutation 1 as framework
B13: Mutation 1-49 (antibody, mouse IgG2b, kappa, V domains shown)
VH: B1 VH with S27Y, E31D, L51I, N55Q, P59A, Q61N, R98K, E102D
VL: B1 VL with I29L, I30L, N33Q, I38L, L56I, I59L, D60E, G96A, S99T, N101Q
notes: Mutation 1 as framework
B14: Mutation 1-39 (antibody, mouse IgG2b, kappa, V domains shown)
VH: B1 VH with S27T, E31D, P59A, R98K, E102D
VL: B1 VL with I29L, I30L, I38L, I59L, D60E, G96A, S99T, N101Q
notes: Mutation 1 as framework
B15: Mutation 1-46 (antibody, mouse IgG2b, kappa, V domains shown)
VH: B1 VH with S27Y, L29I, E31D, L51I, P59A, Q61N, E102D
VL: B1 VL with I30L, N33Q, I38L, L56V, I59L, S99T, N101Q
notes: Mutation 1 as framework
B16: Mutation 1-37 (antibody, mouse IgG2b, kappa, V domains shown)
VH: B1 VH with S27Y, L29I, E31D, L51I, P59A, R98K, E102D
VL: B1 VL with I29L, I30L, I38L, L56I, I59L, D60E, G96A, S99Y, N101Q
notes: Mutation 1 as framework
B17: Mutation 1-47 (antibody, mouse IgG2b, kappa, V domains shown)
VH: B1 VH with L29I, E31D, L51V, P59A, Q61N, R98K, E102D
VL: B1 VL with I30L, N33Q, I38L, L56V, I59L, D60E, G96A, N101Q
notes: Mutation 1 as framework
B18: Mutation 1-41 (antibody, mouse IgG2b, kappa, V domains shown)
VH: B1 VH with S27Y, E31D, L51V, P59A, R98K, E102D
VL: B1 VL with I30L, I38L, L56V, I59L, D60E, G96A, S99Y, N101Q
notes: Mutation 1 as framework
B19: Mutation 1-50 (antibody, mouse IgG2b, kappa, V domains shown)
VH: B1 VH with S27Y, L29I, E31D, L51V, N55Q, P59A, E102D
VL: B1 VL with I29L, I30L, I38L, I59L, D60E, G96A, S99Y, N101Q
notes: Mutation 1 as framework

Molecular target: T1, Plasmodium falciparum histidine-rich …
Experiment: indirect ELISA, four antigen coating concentrations

Q: Which Kd does the source give for B1 here?
A: Its Kd is 0.633 nM.

Q: B2 was tested. Which Kd did it give?
A: Its Kd is 0.0856 nM.

Q: For B3, which Kd is on record?
A: Its Kd is 0.0923 nM.

Q: Which Kd does the source give for B4 here?
A: The Kd was 0.521 nM.

Q: B5 was tested. Which Kd did it give?
A: Its Kd is 0.582 nM.

Q: With B6 as the binder, how does the Kd read?
A: The Kd was 0.311 nM.

Molecular target: T1, Plasmodium falciparum histidine-rich …
Experiment: indirect ELISA, coated MA-HRPII Ag 1 ug/ml, antibody 40 ng/ml

Q: How did the “OD value at 450 nm (ref 630 nm)” value turn out when B1 was run?
A: Its value is 0.402 OD.

Q: Which “OD value at 450 nm (ref 630 nm)” value does the source give for B7 here?
A: Its value is 0.695 OD.

Q: Which “OD value at 450 nm (ref 630 nm)” value does the source give for B8 here?
A: The value was 0.551 OD.

Q: How did the “OD value at 450 nm (ref 630 nm)” value turn out when B9 was run?
A: Its value is 0.032 OD.

Molecular target: T1, Plasmodium falciparum histidine-rich …
Experiment: indirect ELISA, coated MA-HRPII Ag 1 ug/ml, antibody 1.6 ng/ml

Q: For B1, which “OD value at 450 nm (ref 630 nm)” value is on record?
A: Its value is 0.053 OD.

Q: How did the “OD value at 450 nm (ref 630 nm)” value turn out when B7 was run?
A: The value was 0.16 OD.

Q: B8 was tested. Which “OD value at 450 nm (ref 630 nm)” value did it give?
A: Its value is 0.101 OD.

Molecular target: T1, Plasmodium falciparum histidine-rich …
Experiment: indirect ELISA, four antigen coating concentrations
Remark: another data set of the same source
Experimental: The OD values corresponding to different antibody concentrations with different coating concentrations are obtained. Under the same coating concentration, the antibody concentrations are used as an abscissa, the 00 values are used as an ordinate, and a logarithmic plot is made. […] An average value thereof is taken and a reciprocal thereof is calculated to get the affinity constant KD.

Q: For B10, which Kd is on record?
A: Its Kd is 0.333 nM.

Q: B11 was tested. Which Kd did it give?
A: The Kd was 0.384 nM.

Q: B12 was tested. Which Kd did it give?
A: The Kd was 0.521 nM.

Q: With B13 as the binder, how does the Kd read?
A: Its Kd is 0.0956 nM.

Q: With B14 as the binder, how does the Kd read?
A: Its Kd is 0.233 nM.

Q: Which Kd does the source give for B15 here?
A: Its Kd is 0.0721 nM.

Q: How did the Kd turn out when B16 was run?
A: Its Kd is 0.365 nM.

Q: B17 was tested. Which Kd did it give?
A: Its Kd is 0.0828 nM.

Q: With B18 as the binder, how does the Kd read?
A: Its Kd is 0.302 nM.

Q: How did the Kd turn out when B19 was run?
A: Its Kd is 0.382 nM.

Q: Which Kd does the source give for B7 here?
A: The Kd was 0.0521 nM.

Molecular target: T1, Plasmodium falciparum histidine-rich …
Experiment: as above
Remark: another data set of the same source
Experimental: The OD values corresponding to different antibody concentrations with different coating concentrations are obtained. Under the same coating concentration, the antibody concentrations are used as an abscissa, the OD values are used as an ordinate, and a logarithmic plot is made. […] An average value thereof is taken and a reciprocal thereof is calculated to get the affinity constant KD.

Q: With B1 as the binder, how does the Kd read?
A: Its Kd is 0.633 nM.

Molecular target: T1, Plasmodium falciparum histidine-rich …
Experiment: indirect ELISA, coated MA-HRPII Ag 1 ug/ml, antibody 200 ng/ml

Q: With B1 as the binder, how does the “OD value at 450 nm (ref 630 nm)” value read?
A: Its value is 1.97 OD.

Q: B7 was tested. Which “OD value at 450 nm (ref 630 nm)” value did it give?
A: The value was 2.4 OD.

Q: Which “OD value at 450 nm (ref 630 nm)” value does the source give for B8 here?
A: Its value is 2.05 OD.

Q: With B9 as the binder, how does the “OD value at 450 nm (ref 630 nm)” value read?
A: Its value is 0.635 OD.

Molecular target: T1, Plasmodium falciparum histidine-rich …
Experiment: indirect ELISA, coated MA-HRPII Ag 1 ug/ml, antibody 8 ng/ml

Q: Which “OD value at 450 nm (ref 630 nm)” value does the source give for B1 here?
A: The value was 0.122 OD.

Q: How did the “OD value at 450 nm (ref 630 nm)” value turn out when B7 was run?
A: The value was 0.288 OD.

Q: B8 was tested. Which “OD value at 450 nm (ref 630 nm)” value did it give?
A: The value was 0.189 OD.

Molecular target: T1, Plasmodium falciparum histidine-rich …
Experiment: indirect ELISA, coated MA-HRPII Ag 1 ug/ml, antibody 1000 ng/ml

Q: For B1, which “OD value at 450 nm (ref 630 nm)” value is on record?
A: Its value is 2.34 OD.

Q: Which “OD value at 450 nm (ref 630 nm)” value does the source give for B7 here?
A: The value was 2.52 OD.

Q: B8 was tested. Which “OD value at 450 nm (ref 630 nm)” value did it give?
A: The value was 2.23 OD.

Q: Which “OD value at 450 nm (ref 630 nm)” value does the source give for B9 here?
A: Its value is 0.814 OD.

Molecular target: T1, Plasmodium falciparum histidine-rich …
Experiment: indirect ELISA, coated MA-HRPII Ag 1 ug/ml, antibody 0.32 ng/ml

Q: For B1, which “OD value at 450 nm (ref 630 nm)” value is on record?
A: The value was 0.058 OD.

Q: B7 was tested. Which “OD value at 450 nm (ref 630 nm)” value did it give?
A: Its value is 0.089 OD.

Q: For B8, which “OD value at 450 nm (ref 630 nm)” value is on record?
A: The value was 0.077 OD.

— US20220002395A1 (FAPON BIOTECH, published 2022)
